Results taken from patent publication US20220073643A1 (NANJING GENSCRIPT BIOTECH, published 2022).
Positions count from the first letter of the chain named. “And” between values parts separate entries of the source, which are not always exact repeats. Equal values may be shown once.

B1: chimeric 232C5E3 (antibody, human IgG1, kappa, V domains shown)
VH: QAYLQQSGAELVRSGASVKMSCKASGYTFTSHNIHWIKQTPGKGLEWIGYIYPGNGGTNYNQKFKAKATLTADTSSSTAYMQISSLTSEDSAVYFCARDYYGNSFAYWGQGTLVTVSA
VL: DIMMTQSPSSLTETAGEKVSMSCKSSQSLLNSGNQKNYLTWYQQKPGQPPKLLIYWASTRESGVPDRFSGSGSGTDFTLTISSVQAEDLAVYYCQNGYRFPFTFGAGTKLELKR
notes: chimeric, human IgG1/kappa constant regions; also called 232C5E3-Chimeric
B2: chimeric 393C2C5 (antibody, human IgG1, kappa, V domains shown)
VH: DVQLVESGGGLVQPGGSRKLSCAASGFTFSSFGMHWVRQAPEKGLEWVAYISSGSSPIYYADTVKGRFTISRDNPKNTLFLQMTSLRSEDTAMYFCATFYYGNSFAYWGQGTLVTVSA
VL: DIVMTQSPSSLTVTAGEKVTMSCKSSQTLLNSGNQKNYLTWYQQKSGQPPKLLIYWASTRESGVPDRFTGSGSGTDFTLTISSVQAEDLAVYYCQNAYSYPVTFGSGTKVELKR
notes: chimeric, human IgG1/kappa constant regions; also called 393C2C5A
B3: chimeric 418D2F9 (antibody, human IgG1, kappa, V domains shown)
VH: B2 VH with S52N, S53T, P57T, F95Y, T98R, F99I, A106V
VL: B2 VL with T28S, S46P, A97D, V102L, S106A, V110L
notes: chimeric, human IgG1/kappa constant regions
B4: chimeric 410H6H3 (antibody, human IgG1, kappa, V domains shown)
VH: B2 VH with Q3L, F32S, S56N, P57T, V64L, F95Y, T98R, F99I, A106V
VL: DIVMTQSPSSLTVTAGEKVIMSCKSSQSLLNSGNQKNYLTWYQQKPGQPPKMLIYWASTRESGVPDRFRGSGSGTDFTLTISSVQAEDLAVYYCQNNYYYPLTFGTGTKLALKR
notes: chimeric, human IgG1/kappa constant regions; also called 410H6H3-Chimeric
B5: chimeric 412B6E4 (antibody, human IgG1, kappa, V domains shown)
VH: B2 VH with M34V, P57T, D62H, T63S, R87G, M93T, F95Y, T98R
VL: B4 VL with I20T, R69T, N97A, Y99T, T106A, K109R, A111E
notes: chimeric, human IgG1/kappa constant regions; also called 412B6E4-Chimeric
B6: chimeric 429H6C5 (antibody, human IgG1, kappa, V domains shown)
VH: B2 VH with G44E, P57T, D62H, Q82R, R87G, F95Y, A97V, T98R, A106V, Y107N
VL: B4 VL with V13A, I20T, R69A, N97A, Y99I, T106A, K109R, A111E
notes: as for B3
B7: chimeric 419B5G9 (antibody, human IgG1, kappa, V domains shown)
VH: B2 VH with S31T, S53G, S56T, P57T, Y59F, L86V, F95Y, T98R, Q110P, A118T
VL: B4 VL with I20T, R69T, N97A, Y99S, T106A, A111E
notes: as for B3
B8: IMAB362 analog (Claudiximab, Zolbetuximab) (antibody, V domains shown)
VH: QVQLQQPGAELVRPGASVKLSCKASGYTFTSYWINWVKQRPGQGLEWIGNIYPSDSYTNYNQKFKDKATLTVDKSSSTAYMQLSSPTSEDSAVYYCTRSWRGNSFDYWGQGTTLTVSS
VL: DIVMTQSPSSLTVTAGEKVTMSCKSSQSLLNSGNQKNYLTWYQQKPGQPPKLLIYWASTRESGVPDRFTGSGSGTDFTLTISSVQAEDLAVYYCQNDYSYPFTFGSGTKLEIK
notes: in-house prepared analog; chimeric IgG1
B9: chimeric 418G6A5 (antibody, human IgG1, kappa, V domains shown)
VH: B2 VH with A23V, I58M, T98R, F99I
VL: B2 VL with T28S, S46P, V102L, S106A, V110L
notes: as for B3
B10: chimeric 407D8G1 (antibody, human IgG1, kappa, V domains shown)
VH: B2 VH with S31G, V37I, A40T, S56R, K65Q, T98R, A106D, Y107H, A118S
VL: B2 VL with S10F, T28S, S46P, V91L, Y100F, V102L, S106A, V110L
notes: as for B3
B11: chimeric 417A6F11 (antibody, human IgG1, kappa, V domains shown)
VH: EVQLQQSGPELVKPGASMKISCKASGYSFTGYTMNWVKQSHGKNLEWIGLINPYNGGTSYNQKFKGKATLTVDKSSSTAYMELLSLTSEDSAVYYCARGDYWGQGTTLTVSS
VL: DIVMTQSPSSLTVTAGEKVTMSCKSSQSLLNSGNQKNYLTWYQQKPGQPPKLLIYWASTRESGVPDRFTGSGSGTDFTLTISSVQAEDLAVYYCQNDYSYPTFGAGTKLELKR
notes: as for B3

What follows are binders tested against human Claudin18.2 (human) (assay: cell-based or functional assay).
B1 was tested, and the “ADCC % Relative activity” value was 452% and the “ADCC EC50” value was 7.82 ng/mL.
In the case of B2, the “ADCC % Relative activity” value is reported as 318% and the “ADCC EC50” value is reported as 11.1 ng/mL.
In the case of B3, the “ADCC % Relative activity” value is reported as 25.7% and the “ADCC EC50” value is reported as 103 ng/mL.
In the case of B4, the “ADCC % Relative activity” value is reported as 677% and the “ADCC EC50” value is reported as 3.9 ng/mL.
For B5, the “ADCC % Relative activity” value was 535% and the “ADCC EC50” value was 4.94 ng/mL.
B6 was tested, and the “ADCC % Relative activity” value was 144% and the “ADCC EC50” value was 18.4 ng/mL.
For B7, the “ADCC % Relative activity” value was 332% and the “ADCC EC50” value was 7.94 ng/mL.

Biological target: human Claudin18.2 (human)
Assay: cell-based or functional assay
Remark: another data set of the same source
B8 was tested, and the “CDC EC50” value was 2.7 µg/mL and 2.3 µg/mL and 2.12 µg/mL.
B1 was tested, and the “CDC % Relative activity” value was 2130% and the “CDC EC50” value was 0.0994 µg/mL.
For B2, the “CDC % Relative activity” value was 2030% and the “CDC EC50” value was 0.105 µg/mL.
In the case of B3, the “CDC % Relative activity” value is reported as 3.04% and the “CDC EC50” value is reported as 69.9 µg/mL.
With B4 the “CDC % Relative activity” value was 2810% and the “CDC EC50” value was 0.0756 µg/mL.
With B5 the “CDC % Relative activity” value was 2020% and the “CDC EC50” value was 0.105 µg/mL.
For B6, the “CDC % Relative activity” value was 2430% and the “CDC EC50” value was 0.0874 µg/mL.
B7 was tested, and the “CDC % Relative activity” value was 2000% and the “CDC EC50” value was 0.106 µg/mL.

What follows are binders tested against T1, human Claudin18.2 (human) (assay: FACS, Claudin18.2-HEK293 cells).
T1 construct: also called CLDN18.2
Procedure: (§1) The binding of chimeric antibodies to Claudin18.2 expressed on HEK293 cells was determine by FACS analysis. Briefly, HEK293 cells expressing human Claudin18.2 as prepared in the foregoing Example were harvested and incubated with anti-Claudin18.2 mAbs at 4° C. for 40 min, followed by fluorophore (iFluor 647)-labeled goat […] IgG (H+L) secondary antibodies at 4° C. for 0.5 hour. The samples were then analyzed by flow cytometry.
For B8, the EC50 was 0.596 nM.
For B1, the EC50 was 1.05 nM.

Biological target: T1, human Claudin18.2
Assay: FACS, Claudin18.2-HEK293 cells
Remark: another data set of the same source
Procedure: as §1
With B8 the EC50 was 0.517 nM.
Work on B9 yielded an EC50 of 0.595 nM.
B2 was tested, and the EC50 was 0.687 nM.
B3 showed an EC50 of 0.65 nM.
Work on B4 yielded an EC50 of 0.778 nM.
B5 was tested, and the EC50 was 0.677 nM.
For B6, the EC50 was 0.908 nM.
B7 was tested, and the EC50 was 1.23 nM.
B10 gave an EC50 of 0.533 nM.
B11 gave an EC50 of 2.48 nM.

Biological target: T1, human Claudin18.2
Assay: FACS, Claudin18.2-HEK293 cells
Remark: another data set of the same source
B1 showed an EC50 of 0.317 µg/mL and a Span of 69700.
B4 showed an EC50 of 0.843 µg/mL and a Span of 79100.
B5 was tested, and the EC50 was 0.555 µg/mL and the Span was 87900.
